Experiment [1] has as its target T1, hIK1 intermediate conductance, calcium-activated potassium channel (human), O15554.
T1 chain: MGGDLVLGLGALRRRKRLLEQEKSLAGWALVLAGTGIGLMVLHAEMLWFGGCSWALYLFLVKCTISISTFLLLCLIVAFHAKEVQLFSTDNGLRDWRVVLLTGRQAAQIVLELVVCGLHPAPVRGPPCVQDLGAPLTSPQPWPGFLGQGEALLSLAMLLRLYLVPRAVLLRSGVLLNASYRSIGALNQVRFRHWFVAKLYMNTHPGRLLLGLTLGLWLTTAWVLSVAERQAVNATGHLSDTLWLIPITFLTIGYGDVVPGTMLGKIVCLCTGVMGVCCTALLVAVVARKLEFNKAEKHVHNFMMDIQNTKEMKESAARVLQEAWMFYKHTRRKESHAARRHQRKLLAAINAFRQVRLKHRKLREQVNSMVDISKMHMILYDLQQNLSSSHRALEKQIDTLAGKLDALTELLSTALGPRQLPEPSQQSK
The experiment is described as follows: block of macroscopic hIK1 current, patch clamp on macropatches from Xenopus oocytes. For orientation: In patch-clamp work, channel activity is measured electrically.

Experiment [2] deals with rSK2 small conductance, calcium-activated potassium channel (rat), P70604.
rSK2 small conductance, calcium-activated potassium channel (rat), P70604, sequence (P70604 whole entry): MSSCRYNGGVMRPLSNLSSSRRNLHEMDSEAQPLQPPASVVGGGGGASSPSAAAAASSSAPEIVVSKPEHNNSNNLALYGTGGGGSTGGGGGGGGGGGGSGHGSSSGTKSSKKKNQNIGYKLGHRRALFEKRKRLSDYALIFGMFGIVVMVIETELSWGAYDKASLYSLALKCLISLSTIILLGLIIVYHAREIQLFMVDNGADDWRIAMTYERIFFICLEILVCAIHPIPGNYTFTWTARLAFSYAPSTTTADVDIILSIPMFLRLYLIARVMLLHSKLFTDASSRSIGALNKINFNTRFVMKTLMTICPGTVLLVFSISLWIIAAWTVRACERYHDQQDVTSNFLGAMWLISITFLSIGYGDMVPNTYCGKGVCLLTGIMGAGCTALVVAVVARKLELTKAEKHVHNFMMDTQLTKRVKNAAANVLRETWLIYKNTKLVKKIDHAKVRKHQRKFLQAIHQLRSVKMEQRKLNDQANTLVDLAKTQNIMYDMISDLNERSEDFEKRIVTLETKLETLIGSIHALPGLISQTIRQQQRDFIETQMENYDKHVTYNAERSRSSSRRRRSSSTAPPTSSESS

Broadly, the Ki is a dissociation constant, usually derived from enzyme kinetics or from competition with a known ligand. Regarding QFTNVSCTTSKECWSVCQRLHNTSRGKCMNKKCRCYS (modifications not checked) [charybdotoxin, P13487 23-59], in experiment [1], the inhibitory constant (Ki) came out at 2.5 nM.

The term Kd denotes the constant that tells how readily two partners part at equilibrium. On to CNCKAPETALCARRCQQH (modifications not checked) [apamin, P01500 28-45], for which the Kd in experiment [2] came out at 0.063 nM.

(Values after patent publication US20030082683A1.)
